Reference: US20030143192A1 (Human Genome Sciences, published 2003)
Values belong to the binder of their own block, whether it stands above or below them.

Legend:
[1] = target: T1, human D6 chemokine receptor (human, UniProt O00590 1-384); experiment: displacement of 125I-MIP1α in binding assays on CHO cells expressing D6 (not shown)
T1 construct: whole, on cells
T1 sequence (looked up): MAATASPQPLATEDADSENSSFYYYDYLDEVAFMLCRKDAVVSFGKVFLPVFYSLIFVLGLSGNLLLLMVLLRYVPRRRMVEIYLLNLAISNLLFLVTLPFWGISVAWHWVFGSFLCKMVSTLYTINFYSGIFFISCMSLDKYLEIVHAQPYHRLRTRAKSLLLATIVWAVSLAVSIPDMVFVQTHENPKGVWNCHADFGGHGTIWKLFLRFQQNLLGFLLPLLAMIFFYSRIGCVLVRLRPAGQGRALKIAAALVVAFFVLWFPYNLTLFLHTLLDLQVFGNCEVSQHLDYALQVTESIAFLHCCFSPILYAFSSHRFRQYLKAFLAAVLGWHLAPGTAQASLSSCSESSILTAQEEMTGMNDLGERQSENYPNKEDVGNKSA

[2] = target: T2, human CCR3 (human, UniProt P51677 1-355); experiment: displacement of 0.1 nM 125I-eotaxin from 2x10^5 purified human eosinophils (CCR3), 60 min at room temperature
T2 construct: whole, on cells; also called chemokine receptor-3; hCCR3
T2 sequence (looked up): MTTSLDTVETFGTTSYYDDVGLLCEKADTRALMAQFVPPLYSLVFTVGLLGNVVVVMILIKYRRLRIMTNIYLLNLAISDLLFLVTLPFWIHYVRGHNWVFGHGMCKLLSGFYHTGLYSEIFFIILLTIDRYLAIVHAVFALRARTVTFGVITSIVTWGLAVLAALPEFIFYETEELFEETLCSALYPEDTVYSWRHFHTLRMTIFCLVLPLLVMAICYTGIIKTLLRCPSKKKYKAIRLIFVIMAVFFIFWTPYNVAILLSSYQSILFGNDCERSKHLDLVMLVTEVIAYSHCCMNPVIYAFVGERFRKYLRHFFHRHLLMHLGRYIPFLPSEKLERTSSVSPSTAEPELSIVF
Experimental: (§1) After washing with binding buffer containing 0.5M NaCl, the percentage of radio-iodinated ligand remaining bound was calculated compared to assays in which no unlabeled chemokine was added. Each point is the mean of three identical incubations and standard error is included. (C) 2×10⁵ purified eosinophils were incubated for 2 hrs at room temperature in azide-containing binding buffer with 45 nM ¹²⁵I-Met-Ckβ7* plus 500 nM of the various unlabeled chemokines indicated at the bottom of the graph. Cells were washed twice with PBS and remaining ¹²⁵I-Met-Ckβ7* bound was counted. Results are the mean of three identical incubations represented as a percentage of the binding seen in the absence of competitor, and standard error is included.
(§2) Eosinophil ¹²⁵I-Chemokine Binding Assay. 2×10⁵ purified eosinophils were placed in each well of a 96 well plate in binding buffer (1 mM CaCl₂, 5 mM MgCl₂, 0.5% BSA, 0.05% sodium azide, 50 mM Hepes (pH 7.5)). Iodinated chemokine (final concentration of 0.1 nM ¹²⁵I-eotaxin or ¹²⁵I-MCP4, specific activity 2200 Ci/mmol (NEN, Boston, Mass.)) was added in the absence or presence of unlabeled chemokines to a final volume of 100 μl. […] The plates were dried and counted after addition of 50 μl of liquid scintillant in each well. […] Cells were then washed twice with ice cold PBS and counted in a Beckman Gamma 5500B counter. […]

[3] = target: T2, human CCR3; experiment: displacement of 0.1 nM 125I-MCP4 from purified human eosinophils (CCR3)
Experimental: as §1, §2

[4] = target: T2, human CCR3; experiment: homologous displacement of 0.1 nM 125I-eotaxin from purified human eosinophils (CCR3)
Experimental: as §1, §2

[5] = target: T2, human CCR3; experiment: homologous displacement of 0.1 nM 125I-MCP4 from purified human eosinophils (CCR3)
Experimental: as §1, §2

[6] = target: T2, human CCR3; experiment: displacement of 0.1 nM 125I-eotaxin from purified human eosinophils (CCR3)
Experimental: as §1, §2

binding result [1]: no binding (tested: 700 nM)
IC50 [2]: ~6 nM
IC50 [3]: ~5 nM
B1: Met-Ckβ7* (ligand)
chain: MQVGTNKELCCLVYTSWQIPQKFIVDYSETSPQCPKPGVILLTKRGRQICADPNKKWVQKYISDLKLMPEA
notes: E. coli-produced modified form of Ckβ7/MIP4: signal peptide removed, N-terminal Ala of the mature protein replaced by Met, C-terminus LKLMPEA; also called Met-22-87-Met-Pro-Glu-Ala; hg00701-e2

IC50 [4]: ~10 nM
IC50 [3]: ~5 nM
B2: eotaxin (ligand)
chain: not shown
notes: also called human eotaxin

IC50 [5]: ~25 nM
IC50 [6]: ~60 nM
B3: MCP4 (ligand)
chain: not shown
notes: also called monocyte chemotactic protein-4; Ckβ-10
